The text below walks through data of patent US20220241369A1, “COMPOSITIONS AND METHODS OF MODULATING INFLAMMATION” (La Jolla Institute for Allergy and Immunology, priority 2018, published 2022).

For the test, the system named is OVA-induced allergic diarrhea. As to the kind of experiment: Food allergy experiments in WT and FceRIa-/-, FcgRIIB-/-, Enpp3-/- mice. In kind it is in vivo, mouse. The following applies: WT and mutant mice, via FcεRI. The text has this:
FIGS. 10A-10C show HRF-2CA suppresses allergic diarrhea via FcεRI. WT and mutant mice were subjected to food allergy experiments as described in the FIG. 1 legend. FceRIa^−/− (n=4-5 each for group with sensitization and n=3 each for unsensitized group (Cont; no diarrhea was observed))(FIG. 10A), FcgRIIB^−/− (n=9-10 each for groups with sensitization and n=4-5 each for unsensitized groups (Cont; no diarrhea was observed); pooled data of two independent experiments) (FIG. 10B), and Enpp3^−/− (n=9-10 each for groups with sensitization and n=7 each for unsensitized groups (Cont; no diarrhea was observed); pooled data of two independent experiments) (FIG. 10C) mice along with WT mice were used. *, ***: p<0.05, p<0.001 by Student's t-test.
BALB/c mice were bred in the animal facility of RIKEN IMS. Frozen zygotes of FceRIa^−/− mice were donated by Takashi Saito (RIKEN IMS) and bred at RIKEN IMS. FcgRIIB^−/− mice provided by Toshiyuki Takai (Tohoku University) were also bred at RIKEN IMS. Food allergy experiments with Enpp3^−/− mice were conducted at Osaka University. All genetically modified mice were backcrossed to BALB/c background for more than ten generations.
Mice were i.p. sensitized with OVA (50 μg/mouse) plus alum on days 0 and 14. […] The development of diarrhea was monitored for 90 min after OVA challenge. […]

B1: HRF-2CA-His6, a monomeric mutant of mouse HRF (protein)
chain: MIIYRDLISHDELFSDIYKIREIADGLALEVEGKMVSRTEGAIDDSLIGGNASAEGPEGEGTESTVVTGVDIVMNHHLQETSFTKEAYKKYIKDYMKSLKGKLEEQKPERVKPFMTGAAEQIKHILANFNNYQFFIGENMNPDGMVALLDYREDGVTPFMIFFKDGLEMEKAHHHHHH
Turning to B1, the allergic diarrhea result was “suppresses”.
